Test results from US20090186824A1.
Where no end group is shown, it is not given here.

Biological target: dipeptidyl peptidase IV (DPPIV) in plasma of ICR mouse blood (mouse), P28843
Test: cell-based or functional assay

Chain of dipeptidyl peptidase IV (DPPIV) in plasma of ICR mouse blood (mouse), P28843 (P28843 37-760 limits assumed): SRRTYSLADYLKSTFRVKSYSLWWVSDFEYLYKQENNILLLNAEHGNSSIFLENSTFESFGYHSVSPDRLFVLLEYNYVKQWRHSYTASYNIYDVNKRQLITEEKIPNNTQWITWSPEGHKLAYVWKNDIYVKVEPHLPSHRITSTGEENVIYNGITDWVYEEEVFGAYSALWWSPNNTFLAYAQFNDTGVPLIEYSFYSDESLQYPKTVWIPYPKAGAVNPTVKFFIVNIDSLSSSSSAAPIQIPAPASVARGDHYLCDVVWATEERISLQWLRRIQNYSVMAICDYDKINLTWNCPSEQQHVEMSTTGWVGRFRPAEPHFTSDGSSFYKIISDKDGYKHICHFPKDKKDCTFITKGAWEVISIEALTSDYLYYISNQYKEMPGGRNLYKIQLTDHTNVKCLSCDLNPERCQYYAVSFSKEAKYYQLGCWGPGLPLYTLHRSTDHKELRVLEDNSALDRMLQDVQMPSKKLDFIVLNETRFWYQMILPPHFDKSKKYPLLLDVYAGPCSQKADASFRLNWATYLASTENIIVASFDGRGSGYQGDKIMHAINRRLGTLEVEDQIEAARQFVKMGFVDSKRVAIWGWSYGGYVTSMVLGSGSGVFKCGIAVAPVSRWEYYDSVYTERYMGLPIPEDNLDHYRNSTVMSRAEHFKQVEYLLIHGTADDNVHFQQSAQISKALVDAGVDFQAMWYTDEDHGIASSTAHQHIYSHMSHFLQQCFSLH

% DPPIV Activity (Saline) (% relative to saline control): 51
B1: SEQ ID NO 10 (peptide)
peptide: RIVPA-OH
